The values that follow come from patent EP4755449A2 (CHUGAI SEIYAKU KABUSHIKI KAISHA, dated 2026).

Experiment [1] deals with T1, cyno Fc gamma RIIb extracellular domain, His-tagged (cynomolgus monkey).
T1 construct: also called cynoFcgRIIb
T1 chain: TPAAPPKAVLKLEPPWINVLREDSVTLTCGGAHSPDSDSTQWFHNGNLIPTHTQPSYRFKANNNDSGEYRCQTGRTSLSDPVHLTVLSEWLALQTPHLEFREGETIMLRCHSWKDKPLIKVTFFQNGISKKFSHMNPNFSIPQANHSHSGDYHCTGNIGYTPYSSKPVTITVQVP
The experiment in a line: SPR 25C.

For experiment [2], the target named is T2, human Fc gamma RIIb extracellular domain, His-tagged (human, UniProt P31994 43-217).
T2 construct: also called FcgRIIb
T2 sequence: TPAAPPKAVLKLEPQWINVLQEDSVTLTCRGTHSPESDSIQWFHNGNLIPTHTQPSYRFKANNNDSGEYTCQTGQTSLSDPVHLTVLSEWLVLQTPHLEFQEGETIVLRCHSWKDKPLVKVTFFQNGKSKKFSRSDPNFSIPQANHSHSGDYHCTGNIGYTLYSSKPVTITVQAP
As to the kind of experiment: SPR 25C.

B1: M103205H795-SG1 K334Y/M103202L889-SK1 (antibody, human IgG1, kappa)
heavy: not shown
light: DIVMTQSPATLSLSPGERATLSCTSSQSVYHANWLSWFQQKPGQPPKLLIYWASTLAYGVPSRFSGSGSGTDFTLTISSLQPEDAATYYCAGGYGGGRYAFGQGTKVEIKRTVAAPSVFIFPPSDEQLKSGTASVVCLLNNFYPREAKVQWKVDNALQSGNSQESVTEQDSKDSTYSLSSTLTLSKADYEKHKVYACEVTHQGLSSPVTKSFNRGEC
notes: copies: 2 + 2
Turning to B1, the binding result in experiment [1] and in experiment [2] was “binds” each time.

B2: M103205H795-SG1 G236A/M103202L889-SK1 (antibody, human IgG1, kappa)
heavy: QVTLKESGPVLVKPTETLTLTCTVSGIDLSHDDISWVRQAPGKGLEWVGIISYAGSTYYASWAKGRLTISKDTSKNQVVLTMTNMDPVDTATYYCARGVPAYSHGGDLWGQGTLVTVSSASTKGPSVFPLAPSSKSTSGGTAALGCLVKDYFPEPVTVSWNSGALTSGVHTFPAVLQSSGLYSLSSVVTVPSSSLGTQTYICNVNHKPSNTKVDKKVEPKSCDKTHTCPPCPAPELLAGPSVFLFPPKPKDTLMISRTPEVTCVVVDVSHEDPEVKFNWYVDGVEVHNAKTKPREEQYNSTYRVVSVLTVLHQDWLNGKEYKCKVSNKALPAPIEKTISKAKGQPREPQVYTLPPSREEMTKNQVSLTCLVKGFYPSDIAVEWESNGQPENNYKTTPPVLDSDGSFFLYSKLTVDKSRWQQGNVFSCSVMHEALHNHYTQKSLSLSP
light: DIVMTQSPATLSLSPGERATLSCTSSQSVYHANWLSWFQQKPGQPPKLLIYWASTLAYGVPSRFSGSGSGTDFTLTISSLQPEDAATYYCAGGYGGGRYAFGQGTKVEIKRTVAAPSVFIFPPSDEQLKSGTASVVCLLNNFYPREAKVQWKVDNALQSGNSQESVTEQDSKDSTYSLSSTLTLSKADYEKHKVYACEVTHQGLSSPVTKSFNRGEC
notes: copies: 2 + 2
In the case of B2, the binding result in experiment [1] and in experiment [2] was “binds” throughout.

B3: M103205H795-SG1 I332D/M103202L889-SK1 (antibody, human IgG1, kappa)
heavy: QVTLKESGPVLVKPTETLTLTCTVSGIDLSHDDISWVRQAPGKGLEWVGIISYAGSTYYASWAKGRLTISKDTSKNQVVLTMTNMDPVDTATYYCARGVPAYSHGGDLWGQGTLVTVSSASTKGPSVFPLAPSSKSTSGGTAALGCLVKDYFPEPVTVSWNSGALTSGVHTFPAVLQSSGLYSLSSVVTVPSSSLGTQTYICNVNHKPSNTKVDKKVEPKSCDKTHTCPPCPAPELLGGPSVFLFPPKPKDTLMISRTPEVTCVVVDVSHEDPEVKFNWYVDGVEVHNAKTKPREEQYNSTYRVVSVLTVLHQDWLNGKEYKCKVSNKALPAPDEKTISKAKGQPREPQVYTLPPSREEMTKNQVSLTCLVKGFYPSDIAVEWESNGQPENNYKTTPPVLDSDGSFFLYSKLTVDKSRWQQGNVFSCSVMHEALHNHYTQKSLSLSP
light: DIVMTQSPATLSLSPGERATLSCTSSQSVYHANWLSWFQQKPGQPPKLLIYWASTLAYGVPSRFSGSGSGTDFTLTISSLQPEDAATYYCAGGYGGGRYAFGQGTKVEIKRTVAAPSVFIFPPSDEQLKSGTASVVCLLNNFYPREAKVQWKVDNALQSGNSQESVTEQDSKDSTYSLSSTLTLSKADYEKHKVYACEVTHQGLSSPVTKSFNRGEC
notes: copies: 2 + 2
Turning to B3, the binding result in experiment [1] and in experiment [2] was “binds” each time.

B4: MS103205H795-PK2/M103202L889-SK1 (antibody)
heavy: QVTLKESGPVLVKPTETLTLTCTVSGIDLSHDDISWVRQAPGKGLEWVGIISYAGSTYYASWAKGRLTISKDTSKNQVVLTMTNMDPVDTATYYCARGVPAYSHGGDLWGQGTLVTVSSASTKGPSVFPLAPSSKSTSGGTAALGCLVKDYFPEPVTVSWNSGALTSGVHTFPAVLQSSGLYSLSSVVTVPSSSLGTQTYICNVNHKPSNTKVDKKVEPKSCDKTHTCPPCPAPELLNGPSVFLFPPKPKDTLMISRTPEVTCVVVDVSEEDPEVKFNWYVDGVEVHNAKTKPREEQYNSTYRVVSVLTVLHQDWLNGKEYKCKVSNKALPKPIEKTISKAKGQPREPQVYTLPPSREEMTKNQVSLTCLVKGFYPSDIAVEWESNGQPENNYKTTPMVLDRDGSFFLYSKLTVKKSRWQQGNVFSCSVMHEALHNHYTQKSLSLSP
light: DIVMTQSPATLSLSPGERATLSCTSSQSVYHANWLSWFQQKPGQPPKLLIYWASTLAYGVPSRFSGSGSGTDFTLTISSLQPEDAATYYCAGGYGGGRYAFGQGTKVEIKRTVAAPSVFIFPPSDEQLKSGTASVVCLLNNFYPREAKVQWKVDNALQSGNSQESVTEQDSKDSTYSLSSTLTLSKADYEKHKVYACEVTHQGLSSPVTKSFNRGEC
notes: also called MS1032LO06-PK2; copies: 2 + 2
On to B4, for which the “KD fold vs SG1” value in experiment [2] amounted to 8 fold.

B5: MS103205H795-MY351/M103202L889-SK1 (antibody)
heavy: QVTLKESGPVLVKPTETLTLTCTVSGIDLSHDDISWVRQAPGKGLEWVGIISYAGSTYYASWAKGRLTISKDTSKNQVVLTMTNMDPVDTATYYCARGVPAYSHGGDLWGQGTLVTVSSASTKGPSVFPLAPSSKSTSGGTAALGCLVKDYFPEPVTVSWNSGALTSGVHTFPAVLQSSGLYSLSSVVTVPSSSLGTQTYICNVNHKPSNTKVDKKVEPKSCDKTHTCPPCPAPELLNGPSVFLFPPKPKDTLMISRTPEVTCVVVDVSDEDPEVKFNWYVDGVEVHNAKTKPREEQYNSTYRVVSVLTVLHRDWLNGKEYKCKVSNKALPKPIEKTISKAKGQPREPQVYTLPPSREEMTKNQVSLTCLVKGFYPSDIAVEWESNGQPENNYKTTPPVLDSDGSFFLYSKLTVKKSRWQQGNVFSCSVMHEALHNHYTQKSLSLSP
light: DIVMTQSPATLSLSPGERATLSCTSSQSVYHANWLSWFQQKPGQPPKLLIYWASTLAYGVPSRFSGSGSGTDFTLTISSLQPEDAATYYCAGGYGGGRYAFGQGTKVEIKRTVAAPSVFIFPPSDEQLKSGTASVVCLLNNFYPREAKVQWKVDNALQSGNSQESVTEQDSKDSTYSLSSTLTLSKADYEKHKVYACEVTHQGLSSPVTKSFNRGEC
notes: also called MS1032LO06-MY351; copies: 2 + 2
B5: the “KD fold vs SG1” value in experiment [2] was found to be 5 fold.

B6: M103205H795-SG1 K334M/M103202L889-SK1 (antibody, human IgG1, kappa)
heavy: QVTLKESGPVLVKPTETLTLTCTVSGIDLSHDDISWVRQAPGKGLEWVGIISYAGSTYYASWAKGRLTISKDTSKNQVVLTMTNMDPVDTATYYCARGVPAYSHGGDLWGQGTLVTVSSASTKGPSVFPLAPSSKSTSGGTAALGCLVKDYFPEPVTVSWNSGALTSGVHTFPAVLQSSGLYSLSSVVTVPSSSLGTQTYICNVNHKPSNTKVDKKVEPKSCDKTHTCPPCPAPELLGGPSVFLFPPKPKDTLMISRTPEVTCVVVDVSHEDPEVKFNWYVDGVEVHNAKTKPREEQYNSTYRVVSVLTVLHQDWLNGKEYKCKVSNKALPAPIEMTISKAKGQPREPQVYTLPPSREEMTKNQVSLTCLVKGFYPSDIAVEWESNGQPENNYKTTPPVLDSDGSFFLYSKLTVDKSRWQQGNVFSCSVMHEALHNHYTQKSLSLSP
light: DIVMTQSPATLSLSPGERATLSCTSSQSVYHANWLSWFQQKPGQPPKLLIYWASTLAYGVPSRFSGSGSGTDFTLTISSLQPEDAATYYCAGGYGGGRYAFGQGTKVEIKRTVAAPSVFIFPPSDEQLKSGTASVVCLLNNFYPREAKVQWKVDNALQSGNSQESVTEQDSKDSTYSLSSTLTLSKADYEKHKVYACEVTHQGLSSPVTKSFNRGEC
notes: copies: 2 + 2
Consider B6, for which the binding result in experiment [1] and in experiment [2] was “binds” in each case.

B7: M103205H795-SG1 K334V/M103202L889-SK1 (antibody, human IgG1, kappa)
heavy: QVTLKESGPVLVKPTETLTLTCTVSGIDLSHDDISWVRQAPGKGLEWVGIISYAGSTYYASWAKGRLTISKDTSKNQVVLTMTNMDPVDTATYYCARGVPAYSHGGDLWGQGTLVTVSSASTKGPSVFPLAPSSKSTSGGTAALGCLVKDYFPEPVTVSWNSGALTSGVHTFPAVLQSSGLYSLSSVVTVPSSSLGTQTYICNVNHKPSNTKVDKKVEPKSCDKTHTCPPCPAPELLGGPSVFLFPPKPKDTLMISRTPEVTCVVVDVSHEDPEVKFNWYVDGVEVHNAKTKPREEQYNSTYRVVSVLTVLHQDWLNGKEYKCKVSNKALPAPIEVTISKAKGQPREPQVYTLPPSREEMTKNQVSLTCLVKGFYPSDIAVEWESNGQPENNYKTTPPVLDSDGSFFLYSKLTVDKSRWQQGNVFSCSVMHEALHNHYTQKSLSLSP
light: DIVMTQSPATLSLSPGERATLSCTSSQSVYHANWLSWFQQKPGQPPKLLIYWASTLAYGVPSRFSGSGSGTDFTLTISSLQPEDAATYYCAGGYGGGRYAFGQGTKVEIKRTVAAPSVFIFPPSDEQLKSGTASVVCLLNNFYPREAKVQWKVDNALQSGNSQESVTEQDSKDSTYSLSSTLTLSKADYEKHKVYACEVTHQGLSSPVTKSFNRGEC
notes: copies: 2 + 2
With B7, the binding result in experiment [1] and in experiment [2] was “binds” throughout.

B8: M103205H795-SG1 P271G/M103202L889-SK1 (antibody, human IgG1, kappa)
heavy: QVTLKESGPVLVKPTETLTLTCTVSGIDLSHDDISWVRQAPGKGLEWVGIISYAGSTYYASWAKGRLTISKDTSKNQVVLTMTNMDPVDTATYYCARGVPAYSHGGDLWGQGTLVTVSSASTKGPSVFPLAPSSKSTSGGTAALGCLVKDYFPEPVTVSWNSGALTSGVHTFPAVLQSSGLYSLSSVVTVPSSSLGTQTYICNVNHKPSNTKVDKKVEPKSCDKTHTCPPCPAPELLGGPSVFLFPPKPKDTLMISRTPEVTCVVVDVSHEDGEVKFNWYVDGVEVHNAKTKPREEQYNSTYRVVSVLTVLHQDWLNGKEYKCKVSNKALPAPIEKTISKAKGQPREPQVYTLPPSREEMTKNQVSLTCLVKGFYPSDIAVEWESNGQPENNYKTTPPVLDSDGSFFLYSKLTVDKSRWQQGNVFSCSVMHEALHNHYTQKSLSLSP
light: DIVMTQSPATLSLSPGERATLSCTSSQSVYHANWLSWFQQKPGQPPKLLIYWASTLAYGVPSRFSGSGSGTDFTLTISSLQPEDAATYYCAGGYGGGRYAFGQGTKVEIKRTVAAPSVFIFPPSDEQLKSGTASVVCLLNNFYPREAKVQWKVDNALQSGNSQESVTEQDSKDSTYSLSSTLTLSKADYEKHKVYACEVTHQGLSSPVTKSFNRGEC
notes: copies: 2 + 2
With B8, the binding result in experiment [1] and in experiment [2] was “binds” throughout.

B9: M103205H795-SG1 P331E/M103202L889-SK1 (antibody, human IgG1, kappa)
heavy: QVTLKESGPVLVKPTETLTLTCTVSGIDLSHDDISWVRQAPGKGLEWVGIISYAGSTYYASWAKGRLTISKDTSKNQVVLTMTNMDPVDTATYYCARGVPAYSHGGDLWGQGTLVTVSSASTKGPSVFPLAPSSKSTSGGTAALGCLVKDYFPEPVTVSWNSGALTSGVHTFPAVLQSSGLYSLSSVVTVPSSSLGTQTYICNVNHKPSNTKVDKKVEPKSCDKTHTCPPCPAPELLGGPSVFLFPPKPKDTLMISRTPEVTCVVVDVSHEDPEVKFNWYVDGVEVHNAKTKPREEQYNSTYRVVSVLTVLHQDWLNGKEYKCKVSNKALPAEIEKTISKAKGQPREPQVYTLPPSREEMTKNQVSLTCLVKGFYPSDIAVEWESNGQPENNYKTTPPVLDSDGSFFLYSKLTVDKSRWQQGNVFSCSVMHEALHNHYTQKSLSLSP
light: DIVMTQSPATLSLSPGERATLSCTSSQSVYHANWLSWFQQKPGQPPKLLIYWASTLAYGVPSRFSGSGSGTDFTLTISSLQPEDAATYYCAGGYGGGRYAFGQGTKVEIKRTVAAPSVFIFPPSDEQLKSGTASVVCLLNNFYPREAKVQWKVDNALQSGNSQESVTEQDSKDSTYSLSSTLTLSKADYEKHKVYACEVTHQGLSSPVTKSFNRGEC
notes: copies: 2 + 2
With B9, the binding result in experiment [1] and in experiment [2] was “binds” each time.

B10: M103205H795-SG1 E233D/M103202L889-SK1 (antibody, human IgG1, kappa)
heavy: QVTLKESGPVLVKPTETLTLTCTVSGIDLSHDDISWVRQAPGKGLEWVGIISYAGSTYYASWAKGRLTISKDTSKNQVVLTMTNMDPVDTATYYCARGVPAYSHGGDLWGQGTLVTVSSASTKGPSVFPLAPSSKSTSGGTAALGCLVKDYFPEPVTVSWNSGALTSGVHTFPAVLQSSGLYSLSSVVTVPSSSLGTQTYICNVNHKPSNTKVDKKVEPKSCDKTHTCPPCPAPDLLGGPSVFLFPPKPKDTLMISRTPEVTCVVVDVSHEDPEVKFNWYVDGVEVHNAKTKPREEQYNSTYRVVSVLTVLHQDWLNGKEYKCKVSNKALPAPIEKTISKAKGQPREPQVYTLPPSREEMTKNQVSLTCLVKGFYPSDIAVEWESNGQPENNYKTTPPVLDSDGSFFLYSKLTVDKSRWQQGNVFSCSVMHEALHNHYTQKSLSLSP
light: DIVMTQSPATLSLSPGERATLSCTSSQSVYHANWLSWFQQKPGQPPKLLIYWASTLAYGVPSRFSGSGSGTDFTLTISSLQPEDAATYYCAGGYGGGRYAFGQGTKVEIKRTVAAPSVFIFPPSDEQLKSGTASVVCLLNNFYPREAKVQWKVDNALQSGNSQESVTEQDSKDSTYSLSSTLTLSKADYEKHKVYACEVTHQGLSSPVTKSFNRGEC
notes: copies: 2 + 2
B10: the binding result in experiment [1] and in experiment [2] was “binds” in each case.

B11: M103205H795-SG1 K326T/M103202L889-SK1 (antibody, human IgG1, kappa)
heavy: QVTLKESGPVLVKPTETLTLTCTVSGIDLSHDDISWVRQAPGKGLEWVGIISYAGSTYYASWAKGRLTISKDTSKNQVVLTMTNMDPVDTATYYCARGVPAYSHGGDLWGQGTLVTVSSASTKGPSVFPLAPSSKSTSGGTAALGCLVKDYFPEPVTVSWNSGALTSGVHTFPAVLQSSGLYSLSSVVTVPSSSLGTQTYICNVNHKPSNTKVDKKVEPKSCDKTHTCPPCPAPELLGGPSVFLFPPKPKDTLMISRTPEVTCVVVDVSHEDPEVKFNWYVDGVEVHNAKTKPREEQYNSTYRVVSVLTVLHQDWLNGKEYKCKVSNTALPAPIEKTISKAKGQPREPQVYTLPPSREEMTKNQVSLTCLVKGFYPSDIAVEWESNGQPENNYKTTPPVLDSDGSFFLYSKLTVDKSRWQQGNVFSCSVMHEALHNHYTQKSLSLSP
light: DIVMTQSPATLSLSPGERATLSCTSSQSVYHANWLSWFQQKPGQPPKLLIYWASTLAYGVPSRFSGSGSGTDFTLTISSLQPEDAATYYCAGGYGGGRYAFGQGTKVEIKRTVAAPSVFIFPPSDEQLKSGTASVVCLLNNFYPREAKVQWKVDNALQSGNSQESVTEQDSKDSTYSLSSTLTLSKADYEKHKVYACEVTHQGLSSPVTKSFNRGEC
notes: copies: 2 + 2
As to B11, the binding result in experiment [1] and in experiment [2] was “binds” throughout.

B12: M103205H795-SG1 H268E/M103202L889-SK1 (antibody, human IgG1, kappa)
heavy: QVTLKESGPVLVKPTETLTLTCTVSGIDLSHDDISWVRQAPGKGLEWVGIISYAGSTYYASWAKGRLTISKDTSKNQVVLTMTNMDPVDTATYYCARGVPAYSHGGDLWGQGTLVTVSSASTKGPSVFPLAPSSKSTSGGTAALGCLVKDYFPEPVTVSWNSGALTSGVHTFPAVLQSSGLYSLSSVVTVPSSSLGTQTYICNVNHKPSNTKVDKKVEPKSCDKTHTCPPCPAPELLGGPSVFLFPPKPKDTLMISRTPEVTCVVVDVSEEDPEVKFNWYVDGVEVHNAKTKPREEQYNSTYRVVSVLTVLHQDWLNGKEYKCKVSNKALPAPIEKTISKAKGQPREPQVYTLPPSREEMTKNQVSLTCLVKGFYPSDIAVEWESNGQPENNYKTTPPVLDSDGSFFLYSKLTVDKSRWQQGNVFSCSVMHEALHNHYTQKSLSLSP
light: DIVMTQSPATLSLSPGERATLSCTSSQSVYHANWLSWFQQKPGQPPKLLIYWASTLAYGVPSRFSGSGSGTDFTLTISSLQPEDAATYYCAGGYGGGRYAFGQGTKVEIKRTVAAPSVFIFPPSDEQLKSGTASVVCLLNNFYPREAKVQWKVDNALQSGNSQESVTEQDSKDSTYSLSSTLTLSKADYEKHKVYACEVTHQGLSSPVTKSFNRGEC
notes: copies: 2 + 2
On to B12, for which the binding result in experiment [1] and in experiment [2] was “binds” each time.

B13: M103205H795-SG1 L234W/M103202L889-SK1 (antibody, human IgG1, kappa)
heavy: not shown
light: DIVMTQSPATLSLSPGERATLSCTSSQSVYHANWLSWFQQKPGQPPKLLIYWASTLAYGVPSRFSGSGSGTDFTLTISSLQPEDAATYYCAGGYGGGRYAFGQGTKVEIKRTVAAPSVFIFPPSDEQLKSGTASVVCLLNNFYPREAKVQWKVDNALQSGNSQESVTEQDSKDSTYSLSSTLTLSKADYEKHKVYACEVTHQGLSSPVTKSFNRGEC
notes: copies: 2 + 2
Consider B13, for which the binding result in experiment [1] and in experiment [2] was “binds” throughout.

B14: M103205H795-SG1 P396M/M103202L889-SK1 (antibody, human IgG1, kappa)
heavy: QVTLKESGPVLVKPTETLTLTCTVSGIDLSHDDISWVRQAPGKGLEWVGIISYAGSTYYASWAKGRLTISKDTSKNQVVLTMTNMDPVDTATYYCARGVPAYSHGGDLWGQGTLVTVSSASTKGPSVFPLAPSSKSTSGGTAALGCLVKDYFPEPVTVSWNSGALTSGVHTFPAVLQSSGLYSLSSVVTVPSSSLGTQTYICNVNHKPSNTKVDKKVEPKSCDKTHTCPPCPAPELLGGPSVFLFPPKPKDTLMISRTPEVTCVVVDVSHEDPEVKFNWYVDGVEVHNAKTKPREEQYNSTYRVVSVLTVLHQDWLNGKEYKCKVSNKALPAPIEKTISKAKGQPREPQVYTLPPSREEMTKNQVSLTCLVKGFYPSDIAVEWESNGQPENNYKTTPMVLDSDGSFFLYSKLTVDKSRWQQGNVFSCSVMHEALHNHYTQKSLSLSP
light: DIVMTQSPATLSLSPGERATLSCTSSQSVYHANWLSWFQQKPGQPPKLLIYWASTLAYGVPSRFSGSGSGTDFTLTISSLQPEDAATYYCAGGYGGGRYAFGQGTKVEIKRTVAAPSVFIFPPSDEQLKSGTASVVCLLNNFYPREAKVQWKVDNALQSGNSQESVTEQDSKDSTYSLSSTLTLSKADYEKHKVYACEVTHQGLSSPVTKSFNRGEC
notes: copies: 2 + 2
In the case of B14, the binding result in experiment [1] and in experiment [2] was “binds” each time.

B15: M103205H795-SG1 K334I/M103202L889-SK1 (antibody, human IgG1, kappa)
heavy: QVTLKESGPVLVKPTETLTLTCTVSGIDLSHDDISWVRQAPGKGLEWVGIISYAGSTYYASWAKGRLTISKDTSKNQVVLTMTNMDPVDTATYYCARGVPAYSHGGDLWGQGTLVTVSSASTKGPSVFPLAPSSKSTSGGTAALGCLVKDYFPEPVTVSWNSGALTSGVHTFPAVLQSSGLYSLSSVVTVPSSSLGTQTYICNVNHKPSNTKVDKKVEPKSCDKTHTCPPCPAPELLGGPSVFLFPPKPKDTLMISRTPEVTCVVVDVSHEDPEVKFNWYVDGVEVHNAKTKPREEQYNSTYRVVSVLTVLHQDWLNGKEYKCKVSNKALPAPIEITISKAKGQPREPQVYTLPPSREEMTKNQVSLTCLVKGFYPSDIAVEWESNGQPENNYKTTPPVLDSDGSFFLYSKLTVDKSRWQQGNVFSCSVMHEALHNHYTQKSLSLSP
light: DIVMTQSPATLSLSPGERATLSCTSSQSVYHANWLSWFQQKPGQPPKLLIYWASTLAYGVPSRFSGSGSGTDFTLTISSLQPEDAATYYCAGGYGGGRYAFGQGTKVEIKRTVAAPSVFIFPPSDEQLKSGTASVVCLLNNFYPREAKVQWKVDNALQSGNSQESVTEQDSKDSTYSLSSTLTLSKADYEKHKVYACEVTHQGLSSPVTKSFNRGEC
notes: copies: 2 + 2
As to B15, the binding result in experiment [1] and in experiment [2] was “binds” in each case.

B16: M103205H795-SG1 L235W/M103202L889-SK1 (antibody, human IgG1, kappa)
heavy: not shown
light: DIVMTQSPATLSLSPGERATLSCTSSQSVYHANWLSWFQQKPGQPPKLLIYWASTLAYGVPSRFSGSGSGTDFTLTISSLQPEDAATYYCAGGYGGGRYAFGQGTKVEIKRTVAAPSVFIFPPSDEQLKSGTASVVCLLNNFYPREAKVQWKVDNALQSGNSQESVTEQDSKDSTYSLSSTLTLSKADYEKHKVYACEVTHQGLSSPVTKSFNRGEC
notes: copies: 2 + 2
Regarding B16, the binding result in experiment [1] and in experiment [2] was “binds” each time.
